Results published in US20160024159A1.
“And” between values parts separate entries of the source, which are not always exact repeats. Equal entries are not always repeated.

Key:
Assay in all cases: cell-based or functional assay
[1] = target: human voltage-gated sodium channel Nav1.3 (human) (UniProt Q9NY46)
[2] = target: human voltage-gated sodium channel Nav1.5 (human) (UniProt Q14524)
[3] = target: human voltage-gated sodium channel Nav1.7 (human) (UniProt Q15858)
[4] = target: human voltage-gated sodium channel Nav1.4 (human) (UniProt P35499)
[5] = target: hNav1.7 channels in HEK293 cell (human) (UniProt Q15858)
Sequence of hNav1.7 channels in HEK293 cell (human) (Q15858 whole entry): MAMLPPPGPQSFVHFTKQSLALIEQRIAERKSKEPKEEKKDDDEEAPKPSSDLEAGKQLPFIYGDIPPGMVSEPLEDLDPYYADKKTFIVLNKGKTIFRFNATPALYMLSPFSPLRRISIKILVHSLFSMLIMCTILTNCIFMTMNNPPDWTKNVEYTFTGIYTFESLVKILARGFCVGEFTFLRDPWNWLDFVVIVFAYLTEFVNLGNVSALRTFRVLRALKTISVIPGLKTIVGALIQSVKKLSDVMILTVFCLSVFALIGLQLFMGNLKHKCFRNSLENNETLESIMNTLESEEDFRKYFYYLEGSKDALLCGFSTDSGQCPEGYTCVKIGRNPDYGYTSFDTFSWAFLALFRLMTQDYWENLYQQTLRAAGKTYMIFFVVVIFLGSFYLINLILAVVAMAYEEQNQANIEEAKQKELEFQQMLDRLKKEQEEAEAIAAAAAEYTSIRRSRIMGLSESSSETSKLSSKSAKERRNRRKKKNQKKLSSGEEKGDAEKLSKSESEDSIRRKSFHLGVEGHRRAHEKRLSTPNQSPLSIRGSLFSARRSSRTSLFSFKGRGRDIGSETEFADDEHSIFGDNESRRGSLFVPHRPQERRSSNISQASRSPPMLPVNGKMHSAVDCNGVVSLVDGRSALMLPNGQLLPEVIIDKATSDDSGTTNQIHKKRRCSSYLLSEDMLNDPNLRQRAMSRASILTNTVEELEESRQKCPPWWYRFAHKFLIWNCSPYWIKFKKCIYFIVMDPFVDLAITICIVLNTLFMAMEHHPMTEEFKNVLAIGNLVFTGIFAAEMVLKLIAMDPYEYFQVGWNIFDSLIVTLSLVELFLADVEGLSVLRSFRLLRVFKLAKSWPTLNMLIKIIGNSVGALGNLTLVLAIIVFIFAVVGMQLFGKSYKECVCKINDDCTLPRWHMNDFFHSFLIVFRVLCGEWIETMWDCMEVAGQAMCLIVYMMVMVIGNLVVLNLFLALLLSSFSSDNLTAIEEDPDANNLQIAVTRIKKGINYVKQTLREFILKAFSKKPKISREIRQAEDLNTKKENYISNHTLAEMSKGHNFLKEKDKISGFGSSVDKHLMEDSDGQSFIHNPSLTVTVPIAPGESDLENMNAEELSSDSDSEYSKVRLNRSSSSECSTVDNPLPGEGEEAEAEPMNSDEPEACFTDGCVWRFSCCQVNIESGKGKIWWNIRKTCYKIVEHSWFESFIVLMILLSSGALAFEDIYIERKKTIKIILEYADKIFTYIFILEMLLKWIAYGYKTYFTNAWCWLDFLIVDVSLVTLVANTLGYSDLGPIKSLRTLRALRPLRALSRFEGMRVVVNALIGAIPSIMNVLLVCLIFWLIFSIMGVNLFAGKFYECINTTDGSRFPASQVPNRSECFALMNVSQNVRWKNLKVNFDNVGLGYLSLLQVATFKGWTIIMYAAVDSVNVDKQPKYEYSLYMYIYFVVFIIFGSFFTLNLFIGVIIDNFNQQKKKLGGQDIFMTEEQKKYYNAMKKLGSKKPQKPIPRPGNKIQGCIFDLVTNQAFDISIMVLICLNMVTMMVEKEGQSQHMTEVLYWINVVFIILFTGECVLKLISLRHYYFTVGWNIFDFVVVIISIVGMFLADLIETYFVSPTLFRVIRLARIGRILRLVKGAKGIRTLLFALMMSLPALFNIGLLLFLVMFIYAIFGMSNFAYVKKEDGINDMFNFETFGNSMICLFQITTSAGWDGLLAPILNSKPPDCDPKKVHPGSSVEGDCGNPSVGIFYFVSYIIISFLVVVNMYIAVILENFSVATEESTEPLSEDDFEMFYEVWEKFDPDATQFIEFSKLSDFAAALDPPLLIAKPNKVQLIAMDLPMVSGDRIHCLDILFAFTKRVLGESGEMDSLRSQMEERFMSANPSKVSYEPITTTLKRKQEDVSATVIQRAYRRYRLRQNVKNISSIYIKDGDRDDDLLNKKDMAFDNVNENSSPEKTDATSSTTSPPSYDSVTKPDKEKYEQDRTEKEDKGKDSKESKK

[6] = target: human Nav1.7 voltage-gated sodium channel (human) (UniProt Q15858)
Sequence of human Nav1.7 voltage-gated sodium channel (human) (Q15858 whole entry): as above

[7] = target: TTX-resistant Nav channels in mouse DRG neurons
[8] = target: human Nav1.5 voltage-gated sodium channel (human) (UniProt Q14524)
[9] = target: human Nav1.8 voltage-gated sodium channel (human) (UniProt Q9Y5Y9)
[10] = target: TTX-sensitive Nav channels in mouse DRG neurons

Sequence of human voltage-gated sodium channel Nav1.5 (human) (Q14524 whole entry): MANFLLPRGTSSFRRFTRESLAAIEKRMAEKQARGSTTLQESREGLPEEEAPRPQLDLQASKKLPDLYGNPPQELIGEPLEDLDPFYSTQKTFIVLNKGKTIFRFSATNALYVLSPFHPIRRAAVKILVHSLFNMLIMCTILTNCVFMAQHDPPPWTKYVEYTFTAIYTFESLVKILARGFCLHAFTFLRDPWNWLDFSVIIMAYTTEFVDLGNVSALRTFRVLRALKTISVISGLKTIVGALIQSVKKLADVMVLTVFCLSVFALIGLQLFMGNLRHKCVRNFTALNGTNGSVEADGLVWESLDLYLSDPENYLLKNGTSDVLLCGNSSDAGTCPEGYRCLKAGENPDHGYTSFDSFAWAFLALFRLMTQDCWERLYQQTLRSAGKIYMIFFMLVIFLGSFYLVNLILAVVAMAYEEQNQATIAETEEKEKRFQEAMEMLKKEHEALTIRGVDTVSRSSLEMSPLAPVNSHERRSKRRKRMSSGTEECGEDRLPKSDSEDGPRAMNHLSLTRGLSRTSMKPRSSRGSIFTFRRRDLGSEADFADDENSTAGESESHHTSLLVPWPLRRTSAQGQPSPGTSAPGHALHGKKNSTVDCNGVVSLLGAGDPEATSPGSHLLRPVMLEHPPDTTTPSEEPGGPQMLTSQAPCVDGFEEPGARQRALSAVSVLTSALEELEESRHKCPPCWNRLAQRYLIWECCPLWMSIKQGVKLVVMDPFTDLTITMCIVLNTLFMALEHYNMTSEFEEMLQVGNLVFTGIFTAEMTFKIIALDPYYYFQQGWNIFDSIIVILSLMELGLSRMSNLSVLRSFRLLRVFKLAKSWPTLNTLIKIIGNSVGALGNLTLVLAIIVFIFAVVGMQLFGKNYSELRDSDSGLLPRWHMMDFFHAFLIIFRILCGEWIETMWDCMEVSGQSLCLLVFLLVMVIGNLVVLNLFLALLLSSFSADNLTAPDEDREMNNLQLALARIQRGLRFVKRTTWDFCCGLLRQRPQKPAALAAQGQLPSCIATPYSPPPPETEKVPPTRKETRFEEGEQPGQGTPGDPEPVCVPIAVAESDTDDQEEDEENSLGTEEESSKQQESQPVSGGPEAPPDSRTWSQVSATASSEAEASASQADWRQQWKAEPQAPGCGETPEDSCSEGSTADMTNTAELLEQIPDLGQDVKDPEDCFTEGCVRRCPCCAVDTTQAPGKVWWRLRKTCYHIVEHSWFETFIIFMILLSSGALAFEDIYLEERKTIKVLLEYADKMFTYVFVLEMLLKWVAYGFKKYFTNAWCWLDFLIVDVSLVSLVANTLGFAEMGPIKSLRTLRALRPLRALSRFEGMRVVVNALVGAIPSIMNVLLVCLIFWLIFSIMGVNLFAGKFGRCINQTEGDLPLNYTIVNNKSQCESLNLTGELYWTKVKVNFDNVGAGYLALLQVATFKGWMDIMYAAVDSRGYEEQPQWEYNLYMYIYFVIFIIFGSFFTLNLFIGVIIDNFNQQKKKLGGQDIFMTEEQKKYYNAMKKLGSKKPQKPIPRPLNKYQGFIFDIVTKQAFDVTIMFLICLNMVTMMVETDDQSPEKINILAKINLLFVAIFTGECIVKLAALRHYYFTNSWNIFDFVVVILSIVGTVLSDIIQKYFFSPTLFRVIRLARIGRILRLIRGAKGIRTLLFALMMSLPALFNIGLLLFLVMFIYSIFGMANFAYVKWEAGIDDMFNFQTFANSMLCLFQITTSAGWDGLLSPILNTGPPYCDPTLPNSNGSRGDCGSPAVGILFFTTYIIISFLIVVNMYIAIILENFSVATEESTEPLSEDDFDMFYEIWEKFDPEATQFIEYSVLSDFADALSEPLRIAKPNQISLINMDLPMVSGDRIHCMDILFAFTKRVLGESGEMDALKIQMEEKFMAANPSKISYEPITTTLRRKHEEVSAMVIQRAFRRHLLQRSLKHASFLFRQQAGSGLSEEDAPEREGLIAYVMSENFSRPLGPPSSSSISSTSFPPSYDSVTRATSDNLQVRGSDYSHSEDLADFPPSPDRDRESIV
Sequence of human voltage-gated sodium channel Nav1.7 (human) (Q15858 whole entry): as the sequence (Q15858 whole entry) above

Substance	IC50 (IonWorks Quattro) [1]	IC50 (IonWorks Quattro) [2]	IC50 (IonWorks Quattro) [3]	IC50 (IonWorks Quattro) [4]	other results
JzTx-45 (peptide)	1800 nM	> 5000 nM	84 nM	2400 nM	–
JzTx-V(1-29)-FreeAcid (peptide)	780 nM	> 5000 nM	170 nM	610 nM	PX hNav1.7 Tonic IC50 [3]: 13.1 nM
JzTx-46 (peptide)	5000 nM	> 5000 nM	330 nM	> 5000 nM	–
[Phe6,Atz(2 kDa EtO-PEG*-[Phe6,Atz13*]GpTx-1(1-34)1)13]GpTx-1(1-34)	–	–	–	–	Nav1.7 WCPC IC50 [5]: 0.58 nM
JzTx-V(1-29) (peptide)	80 nM and 100 nM	3000 nM and 3500 nM	5 nM and 6 nM	–	WCPC Mean IC50, fully non-inactivated [6]: 0.141 nM; WCPC Mean IC50, partially inactivated [6]: 0.162 nM; IC50, IonWorks Quattro electrophysiology [2]: > 7 µM; WCPC Mean IC50, fully non-inactivated [7]: > 1000 nM; WCPC Mean IC50, partially inactivated [7]: > 1000 nM; WCPC Mean IC50, fully non-inactivated [8]: 882 nM; WCPC Mean IC50, partially inactivated [8]: 426 nM; IC50, IonWorks Quattro electrophysiology [3]: 0.04 µM; IC50, IonWorks Quattro electrophysiology [4]: 0.2 µM; WCPC Mean IC50, fully non-inactivated [9]: 810 nM; WCPC Mean IC50, partially inactivated [9]: 530 nM; WCPC Mean IC50, fully non-inactivated [10]: 75 nM; WCPC Mean IC50, partially inactivated [10]: 18 nM
